The record followed here is the RNAGym collection of RNA variant scans (doi:10.7554/elife.80360).

To fix the notation:
B1: HDV Ribozyme (parent)
chain: GGCCGGCAUGGUCCCAGCCUCCUCGCUGGCGCCGGCUGGGCAACAUUCCGAGGGGACCGUCCCCUCGGUAAUGGCGAAUGGGACCCA

Variants of B1 are the subject of this series. Put plainly: self-cleavage, relative activity (ratio to wild type); higher = more cleavage; co-transcriptional.
Take GGCCGGCAUGGUCCCAGCCUGCUCGCUGGCGCCGGCUGGGCAACAUUCCGAGGGGACCGUUCCCUCGGUAAUGGCGAAUGGGACCCA [C21G C61U]: the self-cleavage came out at 0.032.
Consider GGCCGGCAUGGUACCAGCCUCCUCGCUGGCGCCGGCUGGGCUACAUUCCGAGGGGACCGUCCCCUCGGUAAUGGCGAAUGGGACCCA [C13A A42U], for which the self-cleavage stood at 0.0845.
On to GGCCGGCAUGGUCCCAGCCUCCUCGCUGGCGCCGGCUGGGCAACAUUCCGAGGGGACCGUCGCCUCGGUAAUGGCGAAUGGGACCCC [C62G A87C], for which the self-cleavage is 0.661.
Take GGCCGGCAUGGUCCCAGCCUCCUUGCUGGCGCCGGCUGGGCAACAUUCUGAGGGGACCGUCCCCUCGGUAAUGGCGAAUGGGACCCA [C24U C49U]: the self-cleavage turned out to be 0.758.
Turning to GGCCGGCAUGGUCCCAGCCUCCCCGCUGCCGCCGGCUGGGCAACAUUCCGAGGGGACCGUCCCCUCGGUAAUGGCGAAUGGGACCCA [U23C G29C], the self-cleavage came out at 0.0475.
Consider GGCCGGCAUGGUCCCAGCCUCCUCGCUCGCGCCGGCUGGUCAACAUUCCGAGGGGACCGUCCCCUCGGUAAUGGCGAAUGGGACCCA [G28C G40U], for which the self-cleavage turned out to be 0.032.
For GGCCGGCAUGGUCCCUGCCUCCUCGCUGGCGCCGGCUGGGCCACAUUCCGAGGGGACCGUCCCCUCGGUAAUGGCGAAUGGGACCCA [A16U A42C] the value was 0.262; for GGCCGGCAUGGUCCCAGCCUCCUCCCUGGCGCCGUCUGGGCAACAUUCCGAGGGGACCGUCCCCUCGGUAAUGGCGAAUGGGACCCA [G25C G35U], 0.0692.
As to GGCCGGCAUGGUCCCAGCCUCCUCGCUGGCGCCGGCUGGGCAACAUUACGAGGGGACCGUCCCCUCGGUAAUGGCGAAUGGGUCCCA [C48A A83U], the self-cleavage was determined as 0.465.
For the variant GGCCGGCAUGGUCCCACCCUCCUCGCUGGCGCCGGCUGGGCAACAUUCCGAGGGGACCGGCCCCUCGGUAAUGGCGAAUGGGACCCA [G17C U60G], the self-cleavage was determined as 0.356.
The result for GGCCGGCAUGGUCCCUGCCUCCUCGCUGGCGCCGGCUGGGCAACAUUCCGAGGGGACCGUCCCCUCGGUUAUGGCGAAUGGGACCCA [A16U A70U] reads 0.764; that for GGCCGGCAUGGUCCCAGCCUCCUCGCUGGCGCCGGCUAGGCAACAUUCCGAGGGGACCGUCCCCUCGUUAAUGGCGAAUGGGACCCA [G38A G68U], 0.18.
The result for GGCCGGAAUGGUCCCAGCCUCCUCGCUGGCGCCGGCAGGGCAACAUUCCGAGGGGACCGUCCCCUCGGUAAUGGCGAAUGGGACCCA [C7A U37A] reads 0.229; that for GGCAGGCAUGGUCCCAGCCUCCUCGCUGGCGCGGGCUGGGCAACAUUCCGAGGGGACCGUCCCCUCGGUAAUGGCGAAUGGGACCCA [C4A C33G], 0.
Consider GGCCGGCAUGGUCCCAGCUUCCUCGCCGGCGCCGGCUGGGCAACAUUCCGAGGGGACCGUCCCCUCGGUAAUGGCGAAUGGGACCCA [C19U U27C], for which the self-cleavage was determined as 0.135.
As for GGCCGGCAUGGUCCCAGCCUCCUCGCUGGCGCCGGCUGGGCAACAUUCCGAGGGGACCGUCCCCUCGGUCAUGGCGAAUGGGACCAA [A70C C86A], the self-cleavage turned out to be 1.11.
Regarding GGCCGGCAUGGUCCCAGCCUCCUCGCUGGCGCAGGCUGGGCAACAUUCCGAGGGGACCGUCCCCUCCGUAAUGGCGAAUGGGACCCA [C33A G67C], the self-cleavage amounted to 0.277.
Consider GGCCGGAAUGGUCCCAGCCUCCUCGCUGGCGCCGGCUGGGCAACAUUCCGAGGGGACCAUCCCCUCGGUAAUGGCGAAUGGGACCCA [C7A G59A], for which the self-cleavage worked out at 0.753.
With GGCCGGCAUGGUCCCAGCCUCCGCGCUGGCGCCGGCUGGGCAACCUUCCGAGGGGACCGUCCCCUCGGUAAUGGCGAAUGGGACCCA [U23G A45C], the self-cleavage came out at 0.151.
GGCCGGCAUGGUCCUAGCCUCCUCGCUGGCCCCGGCUGGGCAACAUUCCGAGGGGACCGUCCCCUCGGUAAUGGCGAAUGGGACCCA [C15U G31C]: the self-cleavage was 0.208.
For GGCCGGCAUGGUCCCAGCCUCCUCGCUGGCGCCGGCUGGGCAACAUUACGAGGGGACCGUCCCCUCGGUAACGGCGAAUGGGACCCA [C48A U72C] the value was 0.519; for GGCCGGCAUGGUCCCAGCCUCCUCGCUGGCGCCGGCUGGGCAACAUUCCGAGGGGGCCGUCCCCUCGGUAAUGGCGAAUGGCACCCA [A56G G82C], 0.193; for GGCCGGCAUGGUCCCAGCCUCCUCGCUGGCGCCGGCUGGGCAACAUUCCGAGGGGACCGUCCCCUCGGUAAUGGCGAAUGGGACGAA [C85G C86A], 0.763.
With GGCCGGCAUGGUCGCAGCCUCCUCGCUGGCGCCGGCUGGGCAACACUCCGAGGGGACCGUCCCCUCGGUAAUGGCGAAUGGGACCCA [C14G U46C], the self-cleavage was 0.511.
For GGCCGGCAUGGUCCCAGCCUCCUCGCUGGCGCCGGCUGGGCAACAGUCCGAGGGGACCGUCCCCUCGGUAAUGCCGAAUGGGACCCA [U46G G74C] the value was 0.201; for GGCCGGCAUGGUCCCAGCCUCCUCGCUGGCGCCGGCUGGGCAACAUUCCGAGGGGACCGUCCCCUCUGUAAUGGCGAAUGGCACCCA [G67U G82C], 0.182.
Turning to GCCCGGCAUGGUCCCAGCCUCCUCGCUGGCGCCGGCUGGGCAACAUUCCUAGGGGACCGUCCCCUCGGUAAUGGCGAAUGGGACCCA [G2C G50U], the self-cleavage stood at 0.0594.
The result for GGCCGGCACGGUCCCAGCCUCCUCGCUGGCGCCGGCUGGGCAACAUUCCGAGGGGACCGUCCCCUCGGUAAUGGCGAAUGGGACACA [U9C C85A] reads 0.969.
The result for GGCCGGCAUGGUCCCAGCCUCCUCACUGGCGCCGGCCGGGCAACAUUCCGAGGGGACCGUCCCCUCGGUAAUGGCGAAUGGGACCCA [G25A U37C] reads 0.141.
Consider GGCCGGCACGGUCCCAGCCUCCUCGCUGGCGCCGGCUGGGCAACAUUCCGAGGGGACCGUCCCCUCGGUAAUGGCGAAUGGAACCCA [U9C G82A], for which the self-cleavage stood at 0.266.
As for GGCCGGCAUCGUCCCAGCCUCCUCGCUGGCGCCGGCUGGGCAACAUUCCGAGGGGACCGUCCCCUCCGUAAUGGCGAAUGGGACCCA [G10C G67C], the self-cleavage came out at 1.01.
With GGCCGGCAUGGUCCCAGCCUCCUCGCUGGCGCCGGCUGGGCAACAUUCCGAGGGGAACGUCCCCUCGGUAGUGGCGAAUGGGACCCA [C57A A71G], the self-cleavage was determined as 0.98.
